In data set [1] the target is T1, recombinant human 14-3-3ζ protein (human), P63104.
T1 chain: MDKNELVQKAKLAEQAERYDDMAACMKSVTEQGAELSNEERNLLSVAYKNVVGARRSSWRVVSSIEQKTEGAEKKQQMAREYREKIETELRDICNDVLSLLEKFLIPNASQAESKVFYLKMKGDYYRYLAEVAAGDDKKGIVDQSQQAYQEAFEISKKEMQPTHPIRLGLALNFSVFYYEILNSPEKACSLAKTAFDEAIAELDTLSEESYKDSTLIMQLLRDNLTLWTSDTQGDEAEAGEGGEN
Put plainly: AUC; 'sedimentation equilibration analysis'; 25 μM 14-3-3ζ incubated with or without PTA at 25 °C for 8 h, centrifuged at 20 °C and 60000 rpm for 7 h; c(s) by SEDPHAT; monomer to dimer. The conditions noted are these: remark: other sources report otherwise.

Data set [2] concerns the molecule itself. Put plainly: cross-linking; 0.025 mM 14-3-3ζ incubated with or without PTA at 25 °C for 8 h, cross-linked with 1 mM disuccinimidyl suberate for 30 min (20 mM HEPES, 100 mM KCl, 1 mM dithiothreitol, pH 8.0), quenched with 50 mM Tris-HCl; SDS-PAGE with silver staining, and LC-MS.

The values that follow come from article PMC6929985, “Allosteric regulation of protein 14-3-3ζ scaffold by small-molecule editing modulates histone H3 post-translational modifications” (Theranostics, 2020).

As usually defined, the stoichiometry N is the number of molecules, sites or subunits per partner or assembly.

B1: recombinant human 14-3-3ζ protein, P63104 1-245 (natural protein)
chain: MDKNELVQKAKLAEQAERYDDMAACMKSVTEQGAELSNEERNLLSVAYKNVVGARRSSWRVVSSIEQKTEGAEKKQQMAREYREKIETELRDICNDVLSLLEKFLIPNASQAESKVFYLKMKGDYYRYLAEVAAGDDKKGIVDQSQQAYQEAFEISKKEMQPTHPIRLGLALNFSVFYYEILNSPEKACSLAKTAFDEAIAELDTLSEESYKDSTLIMQLLRDNLTLWTSDTQGDEAEAGEGGEN
In the case of B1, in data set [1], the percent dimer (with PTA) worked out at 77.5%, the percent dimer (without PTA) was determined as 69.1% and the stoichiometry N came out at 2.

B2: 14-3-3ζ mutant (K158R) (natural protein, UniProt P63104 1-245, looked up)
chain: MDKNELVQKAKLAEQAERYDDMAACMKSVTEQGAELSNEERNLLSVAYKNVVGARRSSWRVVSSIEQKTEGAEKKQQMAREYREKIETELRDICNDVLSLLEKFLIPNASQAESKVFYLKMKGDYYRYLAEVAAGDDKKGIVDQSQQAYQEAFEISKREMQPTHPIRLGLALNFSVFYYEILNSPEKACSLAKTAFDEAIAELDTLSEESYKDSTLIMQLLRDNLTLWTSDTQGDEAEAGEGGEN
notes: 14-3-3ζ with K158R
As to B2, in data set [2], the binding result is “binds”.
